B1: H183/L072 VL S52Q (antibody, name in Kabat numbering, V domains shown)
VH: QVQLVESGGGLVQPGRSLRLSCAASGFTFSNAWMHWVRQAPGKGLEWVAQIKDKGNAYAAYYAPSVKGRFTISRDDSKNSIYLQMNSLKTEDTAVYYCHYVHYASASTVLPAFGVDAWGQGTTVTVSS
VL: DIVMTQSPLSLPVTPGEPASISCQASQELVHMNRNTYLHWYQQKPGQAPRLLIYKVQNRFPGVPDRFSGSGSGTDFTLKISRVEAEDVGVYYCAQGTSVPFTFGQGTKLEIK
notes: Dual-Ig
B2: H183/L072 VL S52R (antibody, name in Kabat numbering, V domains shown)
VH: QVQLVESGGGLVQPGRSLRLSCAASGFTFSNAWMHWVRQAPGKGLEWVAQIKDKGNAYAAYYAPSVKGRFTISRDDSKNSIYLQMNSLKTEDTAVYYCHYVHYASASTVLPAFGVDAWGQGTTVTVSS
VL: DIVMTQSPLSLPVTPGEPASISCQASQELVHMNRNTYLHWYQQKPGQAPRLLIYKVRNRFPGVPDRFSGSGSGTDFTLKISRVEAEDVGVYYCAQGTSVPFTFGQGTKLEIK
notes: Dual-Ig
B3: H183/L072 VL S52T (antibody, name in Kabat numbering, V domains shown)
VH: QVQLVESGGGLVQPGRSLRLSCAASGFTFSNAWMHWVRQAPGKGLEWVAQIKDKGNAYAAYYAPSVKGRFTISRDDSKNSIYLQMNSLKTEDTAVYYCHYVHYASASTVLPAFGVDAWGQGTTVTVSS
VL: DIVMTQSPLSLPVTPGEPASISCQASQELVHMNRNTYLHWYQQKPGQAPRLLIYKVTNRFPGVPDRFSGSGSGTDFTLKISRVEAEDVGVYYCAQGTSVPFTFGQGTKLEIK
notes: Dual-Ig
B4: H183/L072 VL S52V (antibody, name in Kabat numbering, V domains shown)
VH: QVQLVESGGGLVQPGRSLRLSCAASGFTFSNAWMHWVRQAPGKGLEWVAQIKDKGNAYAAYYAPSVKGRFTISRDDSKNSIYLQMNSLKTEDTAVYYCHYVHYASASTVLPAFGVDAWGQGTTVTVSS
VL: DIVMTQSPLSLPVTPGEPASISCQASQELVHMNRNTYLHWYQQKPGQAPRLLIYKVVNRFPGVPDRFSGSGSGTDFTLKISRVEAEDVGVYYCAQGTSVPFTFGQGTKLEIK
notes: Dual-Ig
B5: H183/L072 VL S52W (antibody, name in Kabat numbering, V domains shown)
VH: QVQLVESGGGLVQPGRSLRLSCAASGFTFSNAWMHWVRQAPGKGLEWVAQIKDKGNAYAAYYAPSVKGRFTISRDDSKNSIYLQMNSLKTEDTAVYYCHYVHYASASTVLPAFGVDAWGQGTTVTVSS
VL: DIVMTQSPLSLPVTPGEPASISCQASQELVHMNRNTYLHWYQQKPGQAPRLLIYKVWNRFPGVPDRFSGSGSGTDFTLKISRVEAEDVGVYYCAQGTSVPFTFGQGTKLEIK
notes: Dual-Ig
B6: H183/L072 VL S93A (antibody, name in Kabat numbering, V domains shown)
VH: QVQLVESGGGLVQPGRSLRLSCAASGFTFSNAWMHWVRQAPGKGLEWVAQIKDKGNAYAAYYAPSVKGRFTISRDDSKNSIYLQMNSLKTEDTAVYYCHYVHYASASTVLPAFGVDAWGQGTTVTVSS
VL: DIVMTQSPLSLPVTPGEPASISCQASQELVHMNRNTYLHWYQQKPGQAPRLLIYKVSNRFPGVPDRFSGSGSGTDFTLKISRVEAEDVGVYYCAQGTAVPFTFGQGTKLEIK
notes: Dual-Ig
B7: H183/L072 VL S93D (antibody, name in Kabat numbering, V domains shown)
VH: QVQLVESGGGLVQPGRSLRLSCAASGFTFSNAWMHWVRQAPGKGLEWVAQIKDKGNAYAAYYAPSVKGRFTISRDDSKNSIYLQMNSLKTEDTAVYYCHYVHYASASTVLPAFGVDAWGQGTTVTVSS
VL: DIVMTQSPLSLPVTPGEPASISCQASQELVHMNRNTYLHWYQQKPGQAPRLLIYKVSNRFPGVPDRFSGSGSGTDFTLKISRVEAEDVGVYYCAQGTDVPFTFGQGTKLEIK
notes: Dual-Ig
B8: H183/L072 VL S93E (antibody, name in Kabat numbering, V domains shown)
VH: QVQLVESGGGLVQPGRSLRLSCAASGFTFSNAWMHWVRQAPGKGLEWVAQIKDKGNAYAAYYAPSVKGRFTISRDDSKNSIYLQMNSLKTEDTAVYYCHYVHYASASTVLPAFGVDAWGQGTTVTVSS
VL: DIVMTQSPLSLPVTPGEPASISCQASQELVHMNRNTYLHWYQQKPGQAPRLLIYKVSNRFPGVPDRFSGSGSGTDFTLKISRVEAEDVGVYYCAQGTEVPFTFGQGTKLEIK
notes: Dual-Ig
B9: H183/L072 VL S93F (antibody, name in Kabat numbering, V domains shown)
VH: QVQLVESGGGLVQPGRSLRLSCAASGFTFSNAWMHWVRQAPGKGLEWVAQIKDKGNAYAAYYAPSVKGRFTISRDDSKNSIYLQMNSLKTEDTAVYYCHYVHYASASTVLPAFGVDAWGQGTTVTVSS
VL: DIVMTQSPLSLPVTPGEPASISCQASQELVHMNRNTYLHWYQQKPGQAPRLLIYKVSNRFPGVPDRFSGSGSGTDFTLKISRVEAEDVGVYYCAQGTFVPFTFGQGTKLEIK
notes: Dual-Ig
B10: H183/L072 VL S93G (antibody, name in Kabat numbering, V domains shown)
VH: QVQLVESGGGLVQPGRSLRLSCAASGFTFSNAWMHWVRQAPGKGLEWVAQIKDKGNAYAAYYAPSVKGRFTISRDDSKNSIYLQMNSLKTEDTAVYYCHYVHYASASTVLPAFGVDAWGQGTTVTVSS
VL: DIVMTQSPLSLPVTPGEPASISCQASQELVHMNRNTYLHWYQQKPGQAPRLLIYKVSNRFPGVPDRFSGSGSGTDFTLKISRVEAEDVGVYYCAQGTGVPFTFGQGTKLEIK
notes: Dual-Ig
B11: H183/L072 VL S93H (antibody, name in Kabat numbering, V domains shown)
VH: QVQLVESGGGLVQPGRSLRLSCAASGFTFSNAWMHWVRQAPGKGLEWVAQIKDKGNAYAAYYAPSVKGRFTISRDDSKNSIYLQMNSLKTEDTAVYYCHYVHYASASTVLPAFGVDAWGQGTTVTVSS
VL: DIVMTQSPLSLPVTPGEPASISCQASQELVHMNRNTYLHWYQQKPGQAPRLLIYKVSNRFPGVPDRFSGSGSGTDFTLKISRVEAEDVGVYYCAQGTHVPFTFGQGTKLEIK
notes: Dual-Ig
B12: H183/L072 VL S93I (antibody, name in Kabat numbering, V domains shown)
VH: QVQLVESGGGLVQPGRSLRLSCAASGFTFSNAWMHWVRQAPGKGLEWVAQIKDKGNAYAAYYAPSVKGRFTISRDDSKNSIYLQMNSLKTEDTAVYYCHYVHYASASTVLPAFGVDAWGQGTTVTVSS
VL: DIVMTQSPLSLPVTPGEPASISCQASQELVHMNRNTYLHWYQQKPGQAPRLLIYKVSNRFPGVPDRFSGSGSGTDFTLKISRVEAEDVGVYYCAQGTIVPFTFGQGTKLEIK
notes: Dual-Ig
B13: H183/L072 VL S93K (antibody, name in Kabat numbering, V domains shown)
VH: QVQLVESGGGLVQPGRSLRLSCAASGFTFSNAWMHWVRQAPGKGLEWVAQIKDKGNAYAAYYAPSVKGRFTISRDDSKNSIYLQMNSLKTEDTAVYYCHYVHYASASTVLPAFGVDAWGQGTTVTVSS
VL: DIVMTQSPLSLPVTPGEPASISCQASQELVHMNRNTYLHWYQQKPGQAPRLLIYKVSNRFPGVPDRFSGSGSGTDFTLKISRVEAEDVGVYYCAQGTKVPFTFGQGTKLEIK
notes: Dual-Ig
B14: H183/L072 VL S93L (antibody, name in Kabat numbering, V domains shown)
VH: QVQLVESGGGLVQPGRSLRLSCAASGFTFSNAWMHWVRQAPGKGLEWVAQIKDKGNAYAAYYAPSVKGRFTISRDDSKNSIYLQMNSLKTEDTAVYYCHYVHYASASTVLPAFGVDAWGQGTTVTVSS
VL: DIVMTQSPLSLPVTPGEPASISCQASQELVHMNRNTYLHWYQQKPGQAPRLLIYKVSNRFPGVPDRFSGSGSGTDFTLKISRVEAEDVGVYYCAQGTLVPFTFGQGTKLEIK
notes: Dual-Ig
B15: H183/L072 VL S93M (antibody, name in Kabat numbering, V domains shown)
VH: QVQLVESGGGLVQPGRSLRLSCAASGFTFSNAWMHWVRQAPGKGLEWVAQIKDKGNAYAAYYAPSVKGRFTISRDDSKNSIYLQMNSLKTEDTAVYYCHYVHYASASTVLPAFGVDAWGQGTTVTVSS
VL: DIVMTQSPLSLPVTPGEPASISCQASQELVHMNRNTYLHWYQQKPGQAPRLLIYKVSNRFPGVPDRFSGSGSGTDFTLKISRVEAEDVGVYYCAQGTMVPFTFGQGTKLEIK
notes: Dual-Ig
B16: H183/L072 VL S93N (antibody, name in Kabat numbering, V domains shown)
VH: QVQLVESGGGLVQPGRSLRLSCAASGFTFSNAWMHWVRQAPGKGLEWVAQIKDKGNAYAAYYAPSVKGRFTISRDDSKNSIYLQMNSLKTEDTAVYYCHYVHYASASTVLPAFGVDAWGQGTTVTVSS
VL: DIVMTQSPLSLPVTPGEPASISCQASQELVHMNRNTYLHWYQQKPGQAPRLLIYKVSNRFPGVPDRFSGSGSGTDFTLKISRVEAEDVGVYYCAQGTNVPFTFGQGTKLEIK
notes: Dual-Ig
B17: H183/L072 VL S93P (antibody, name in Kabat numbering, V domains shown)
VH: QVQLVESGGGLVQPGRSLRLSCAASGFTFSNAWMHWVRQAPGKGLEWVAQIKDKGNAYAAYYAPSVKGRFTISRDDSKNSIYLQMNSLKTEDTAVYYCHYVHYASASTVLPAFGVDAWGQGTTVTVSS
VL: DIVMTQSPLSLPVTPGEPASISCQASQELVHMNRNTYLHWYQQKPGQAPRLLIYKVSNRFPGVPDRFSGSGSGTDFTLKISRVEAEDVGVYYCAQGTPVPFTFGQGTKLEIK
notes: Dual-Ig
B18: H183/L072 VL S93Q (antibody, name in Kabat numbering, V domains shown)
VH: QVQLVESGGGLVQPGRSLRLSCAASGFTFSNAWMHWVRQAPGKGLEWVAQIKDKGNAYAAYYAPSVKGRFTISRDDSKNSIYLQMNSLKTEDTAVYYCHYVHYASASTVLPAFGVDAWGQGTTVTVSS
VL: DIVMTQSPLSLPVTPGEPASISCQASQELVHMNRNTYLHWYQQKPGQAPRLLIYKVSNRFPGVPDRFSGSGSGTDFTLKISRVEAEDVGVYYCAQGTQVPFTFGQGTKLEIK
notes: Dual-Ig
B19: H183/L072 VL S93R (antibody, name in Kabat numbering, V domains shown)
VH: QVQLVESGGGLVQPGRSLRLSCAASGFTFSNAWMHWVRQAPGKGLEWVAQIKDKGNAYAAYYAPSVKGRFTISRDDSKNSIYLQMNSLKTEDTAVYYCHYVHYASASTVLPAFGVDAWGQGTTVTVSS
VL: DIVMTQSPLSLPVTPGEPASISCQASQELVHMNRNTYLHWYQQKPGQAPRLLIYKVSNRFPGVPDRFSGSGSGTDFTLKISRVEAEDVGVYYCAQGTRVPFTFGQGTKLEIK
notes: Dual-Ig
B20: H183/L072 VL S93T (antibody, name in Kabat numbering, V domains shown)
VH: QVQLVESGGGLVQPGRSLRLSCAASGFTFSNAWMHWVRQAPGKGLEWVAQIKDKGNAYAAYYAPSVKGRFTISRDDSKNSIYLQMNSLKTEDTAVYYCHYVHYASASTVLPAFGVDAWGQGTTVTVSS
VL: DIVMTQSPLSLPVTPGEPASISCQASQELVHMNRNTYLHWYQQKPGQAPRLLIYKVSNRFPGVPDRFSGSGSGTDFTLKISRVEAEDVGVYYCAQGTTVPFTFGQGTKLEIK
notes: Dual-Ig
B21: H183/L072 VL S93V (antibody, name in Kabat numbering, V domains shown)
VH: QVQLVESGGGLVQPGRSLRLSCAASGFTFSNAWMHWVRQAPGKGLEWVAQIKDKGNAYAAYYAPSVKGRFTISRDDSKNSIYLQMNSLKTEDTAVYYCHYVHYASASTVLPAFGVDAWGQGTTVTVSS
VL: DIVMTQSPLSLPVTPGEPASISCQASQELVHMNRNTYLHWYQQKPGQAPRLLIYKVSNRFPGVPDRFSGSGSGTDFTLKISRVEAEDVGVYYCAQGTVVPFTFGQGTKLEIK
notes: Dual-Ig

target: T1, Human CD137 ECD (human); test: Biacore SPR, vs parent H183/L072
T1 construct: entry includes C-terminal His-tag and biotin acceptor peptide; also called human CD137 extracellular domain; 4-1BB
T1 sequence (chain, as listed by the source limits assumed): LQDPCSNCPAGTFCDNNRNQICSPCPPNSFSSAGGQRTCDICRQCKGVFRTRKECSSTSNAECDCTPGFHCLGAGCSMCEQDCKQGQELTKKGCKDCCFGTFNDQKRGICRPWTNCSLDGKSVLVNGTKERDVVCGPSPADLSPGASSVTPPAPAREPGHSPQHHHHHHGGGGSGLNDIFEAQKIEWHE

Fold change of affinity, 0.9 fold:
B6

Fold change of affinity, 1 fold:
B1
B2
B3
B5
B8
B9
B15
B16
B19

Fold change of affinity, 1.3 fold:
B4
B11
B14

Fold change of affinity, 0.4 fold:
B10

Fold change of affinity, 0.7 fold:
B7

Fold change of affinity, 0 fold:
B17

Fold change of affinity, 1.1 fold:
B12
B13
B18
B20
B21

Source: patent US20210388087A1 (Chugai, published 2021)
